Laboratory results taken from US20230406886A1 (DAEGU GYEONGBUK INSTITUTE OF SCIENCE AND TECHNOLOGY, published 2023).
Positions count from the first letter of the chain named.

B1: COVID-19 therapeutic protein CTP-α1 (designed binder)
chain: MKSELASNVYNTNITKENVQNMNEEQAKTFLDKFNHEAEDLFYQSSGLGKGDFR
B2: COVID-19 therapeutic protein CTP-α2 (designed binder)
chain: B1 chain with E4D
B3: COVID-19 therapeutic protein CTP-β3 (designed binder)
chain: B1 chain with K2E
B4: COVID-19 therapeutic protein CTP-α3 (designed binder)
chain: B1 chain with E4Q, S7E
B5: COVID-19 therapeutic protein CTP-β2 (designed binder)
chain: B1 chain with K2E, N8V, V9N, N21A, M22N, N23G
B6: COVID-19 therapeutic protein CTP-β1 (designed binder)
chain: B1 chain with N8V, V9N, N21A, M22N, N23G
B7: COVID-19 therapeutic protein CTP-δ1 (designed binder)
chain: GEFADKLKNELAKTEEQAKTFLDKFNHEAEDLFYQSSGLGKGDFR
B8: COVID-19 therapeutic protein CTP-γ1 (designed binder)
chain: MKASSLADNVYNTNITKENVQNMNEEQAKTFLDKFNHEAEDLFYQSSGLGKGDFR
B9: COVID-19 therapeutic protein CTP-γ3 (designed binder)
chain: B8 chain with S5E
B10: COVID-19 therapeutic protein CTP-γ2 (designed binder)
chain: B8 chain with A3E

Each binder was assayed against SARS-CoV2 spike protein S1 receptor binding domain (RBD) (SARS-CoV2, UniProt P0DTC2 319-541).
B1 gave a Kd of 37.8 nM.
Binder B2 has a Kd of 50.4 nM.
Work on B3 yielded a Kd of 56.4 nM.
In the case of B4, the Kd is reported as 35.7 nM.
Work on B5 yielded a Kd of 42.9 nM.
B6 was tested, and the Kd was 82 nM.
Binder B7 has a Kd of 56.3 nM.
Binder B8 has a Kd of 47.5 nM.
In the case of B9, the Kd is reported as 39.2 nM.
In the case of B10, the Kd is reported as 42.8 nM.
